Data on 5 molecules can be found in patent US20250092373A1, “CRISPR-MEDIATED DELETION OF FLI1 IN NK CELLS” (The Regents of the University of California, priority 2022, published 2025).

The test system of one assay is STAT5. As to the kind of experiment: Fli1 protein by western blot in IL-15-stimulated splenic NK cells with STAT5 inhibitor or vehicle. The format is cell-based, mouse. Particulars: 100 μM inhibitor vs vehicle control (DMSO). Here is the method: (§1) For plate-bound antibody stimulation experiments, ˜5×10^5 isolated NK cells were stimulated with […] precoated antibody against NK1.1 (PK136) for 4 hours in complete media containing Brefeldin A (1:1000; BioLegend) and Monensin (2 uM; BioLegend). Cells were cultured in media alone as a negative control. In cytokine stimulation experiments, isolated NK cells were incubated with various concentrations of mouse IL-15 or IL-2, in the presence or absence of 100 μM CAS 285986-31-4 STAT5 inhibitor (Millipore Sigma).
(§2) Protein was extracted from enriched primary splenic NK cells using Pierce RIPA buffer (Thermo-Fisher) with Halt protease inhibitor cocktail (Thermo-Fisher) and protein concentration was quantified using the Pierce BCA Protein Assay kit (Thermo-Fisher). Samples were electrophoresed on NuPage Novex 4-12% Bis-Tris Protein Gels, transferred to PVDF membranes, and blocked for one hour at room temperature with 5% w/v nonfat milk in 1× TBS and 0.1% Tween-20. Immunoblots were performed using rabbit anti-Fli1 (Abcam ab133485), rabbit anti-β-actin (Cell Signaling CST4970), and rabbit anti-GAPDH (Millipore Sigma G9545). Proteins were detected using the SuperSignal West Pico PLUS ECL kit (Thermo-Fisher) and visualized using the Azure Biosystems c280 imager. Band density was quantified using ImageJ version 1.53.

Assay [1] deals with splenic NK cells. Particulars: 3 hours after cytokine stimulation ex vivo; published RNA-seq datasets (GSE140044); cited from earlier work.
Assay [2] concerns splenic NK cells. As to the kind of experiment: Fli1 protein by immunoblot of purified splenic NK cells cultured with IL-2 or IL-15. The conditions noted are these: for Fli1 protein induction: 48 h culture with increasing doses of cytokine. The class given is cell-based, mouse. How it is done:
as §1, §2
A general note: Immunoblotting shows a protein as a band on a membrane.

Regarding `O=C(N/N=C/c1coc2ccccc2c1=O)c1cccnc1` [STAT5 inhibitor], in the assay with STAT5, the “reduction of Fli1 protein” value was roughly 50%.

As for “IL-18: cytokine used to stimulate NK cells ex vivo”, the Fli1 transcripts result in the assay with splenic NK cells [1] is recorded as “decreased Fli1 expression”.

B1: IL-15: mouse IL-15 cytokine used to stimulate splenic NK cells (protein, UniProt P48346 49-162, looked up)
Interleukin-15: NWIDVRYDLEKIESLIQSIHIDTTLYTDSDFHPSCKVTAMNCFLLELQVILHEYSNMTLNETVRNVLYLANSTLSSNKNVAESGCKECEELEEKTFTEFLQSFIRIVQMFINTS
For the molecule B1, the Fli1 protein induction result with splenic NK cells [2] is “induced by both IL-2 and IL-15 in a dose-dependent manner”. Besides, in the assay on splenic NK cells [2] (48 h culture, at each dose), the “Fli1 protein induced, IL-15 compared with IL-2” value is on record as “more Fli1 protein than IL-2 at each dose”. In addition, the Fli1 transcripts result in the assay with splenic NK cells [1] was “induced Fli1 transcripts”.

B2: IL-2: mouse IL-2 cytokine used to stimulate splenic NK cells (protein, UniProt P04351 21-169, looked up)
Interleukin-2: APTSSSTSSSTAEAQQQQQQQQQQQQHLEQLLMDLQELLSRMENYRNLKLPRMLTFKFYLPKQATELKDLQCLEDELGPLRHVLDLTQSKSFQLEDAENFISNIRVTVVKLKGSDNTFECQFDDESATVVDFLRRWIAFCQSIISTSPQ
As to B2, the Fli1 protein induction entry in the assay with splenic NK cells [2] was “induced by both IL-2 and IL-15 in a dose-dependent manner”. The Fli1 transcripts result in the assay on splenic NK cells [1] is “induced Fli1 transcripts”.

B3: IL-12: cytokine used to stimulate NK cells ex vivo (protein, UniProt P29459 23-219; P29460 23-328, looked up)
Interleukin-12 subunit alpha: RNLPVATPDPGMFPCLHHSQNLLRAVSNMLQKARQTLEFYPCTSEEIDHEDITKDKTSTVEACLPLELTKNESCLNSRETSFITNGSCLASRKTSFMMALCLSSIYEDLKMYQVEFKTMNAKLLMDPKRQIFLDQNMLAVIDELMQALNFNSETVPQKSSLEEPDFYKTKIKLCILLHAFRIRAVTIDRVMSYLNAS
Interleukin-12 subunit beta: IWELKKDVYVVELDWYPDAPGEMVVLTCDTPEEDGITWTLDQSSEVLGSGKTLTIQVKEFGDAGQYTCHKGGEVLSHSLLLLHKKEDGIWSTDILKDQKEPKNKTFLRCEAKNYSGRFTCWWLTTISTDLTFSVKSSRGSSDPQGVTCGAATLSAERVRGDNKEYEYSVECQEDSACPAAEESLPIEVMVDAVHKLKYENYTSSFFIRDIIKPDPPKNLQLKPLKNSRQVEVSWEYPDTWSTPHSYFSLTFCVQVQGKSKREKKDRVFTDKTSATVICRKNASISVRAQDRYYSSSWSEWASVPCS
For B3, the Fli1 transcripts entry with splenic NK cells [1] is “decreased Fli1 expression”.
